Test results published in publication PMC6220267, “High‐affinity interactions and signal transduction between Aβ oligomers and TREM2” (EMBO Molecular Medicine, 2018).

B1: soluble mouse Trem2‐Fc (soluble ectodomain) (Fc fusion, UniProt Q99NH8 19-171, looked up)
chain: LNTTVLQGMAGQSLRVSCTYDALKHWGRRKAWCRQLGEEGPCQRVVSTHGVWLLAFLKKRNGSTVIADDTLAGTVTITLKNLQAGDAGLYQCQSLRGREAEVLQKVLVEVLEDPLDDQDAGDLWVPEESSSFEGAQVEHSTSRNQETSFPPTS
notes: Trem2, mouse, soluble ectodomain; also called sTrem2‐Fc; sTrem2‐FC; source: HEK293T, transiently transfected; conditioned media; purified from conditioned media (anti-human IgG Fc agarose beads)
B2: soluble mouse Treml1‐Fc (soluble ectodomain) (Fc fusion, UniProt Q8K558 21-175, looked up)
chain: DSHPEVLQAPVGSSILVQCHYRLQDVRALKVWCQFLQEGCHPLVTSAVDRRAPGNGRIFLTDLGGGLLQVEMVTLQEEDTGEYGCVVEGAAGPQTLHRVSLLVLPPVPGPREGEEAEDEKETYRIGTGSLLEDPSLDPSASAGPHEFRRRENSIP
notes: Treml1, mouse, soluble ectodomain; also called sTreml1‐Fc; source: HEK293T, transfected, purified from conditioned media (anti-human IgG Fc agarose beads)
B3: soluble TREML1‐Fc (human, soluble ectodomain) (Fc fusion, UniProt Q86YW5 16-162, looked up)
chain: QGIVGSLPEVLQAPVGSSILVQCHYRLQDVKAQKVWCRFLPEGCQPLVSSAVDRRAPAGRRTFLTDLGGGLLQVEMVTLQEEDAGEYGCMVDGARGPQILHRVSLNILPPEEEEETHKIGSLAENAFSDPAGSANPLEPSQDEKSIP
notes: TREML1, human, soluble ectodomain; also called sTREML1‐Fc; source: HEK293T, transiently transfected; conditioned media; purified from conditioned media (anti-human IgG Fc agarose beads)

Assays:
[1] = biological target: T1, Aβ42 fibrils (fibrillar Aβ42) (UniProt P05067 672-713); assay: pull-down; Aβ42 fibril pull-down: conditioned media with 5 mM EDTA incubated with Aβ42 fibrils 1 h at room temperature, fibrils pelleted at 18,000 g, washed with PBS; Western blot with V5 antibody; settings: one partner purified
T1 construct: amyloid‐β 1-42 (Aβ42), cut product of the amyloid precursor protein APP; Fibrillar assembly of the peptide; also called fAβ; Aβ fibrils; source: Pinotsi et al, 2016

Aβ42 oligomers (soluble) = biological target: T2, Aβ42 oligomers (soluble) (UniProt P05067 672-713); assay: BLI; optimized assay: Protein A sensors loaded to near-saturation with soluble TREM‐Fc‐V5 proteins in PBS; ligand in serial dilution (five concentrations); dissociation in PBS; 1:1 interaction model; settings: both partners purified
T2 construct: amyloid‐β 1-42 (Aβ42), cut product of the amyloid precursor protein APP; Oligomeric assembly; also called Aβ oligomers; oligomeric Aβ; source: oligomers prepared as described (Stine et al, 2003)

Aβ42 monomers = biological target: T3, Aβ42 monomers (UniProt P05067 672-713); assay: ELISA; plates coated overnight at 4°C with purified soluble TREM‐Fc proteins in 100 mM NaCO3 pH 11, blocked (Block Ace), incubated with Aβ42 monomers, oligomers or fibrils 1 h at room temperature; Aβ detected with 4G8‐HRP, OD450; settings: both partners purified
T3 construct: amyloid‐β 1-42 (Aβ42), cut product of the amyloid precursor protein APP; also called monomeric Aβ; source: monomers prepared as described (Stine et al, 2003)

Row | Binder | binding result [1] | binding result (Aβ42 oligomers (soluble)) | binding result (Aβ42 monomers)
1 | B1 | binds | binds | binds
2 | B2 |  | binds | 
3 | B3 |  | binds | 
